Biological target: T1, Drosha (endogenous, N2A cells) (mouse (endogenous in N2A), UniProt Q5HZJ0 1-1373)
T1 construct: Drosha, endogenous protein of N2A neuroblastoma cells (ATCC CCL-131); source: endogenous, N2A lysate
T1 sequence (looked up): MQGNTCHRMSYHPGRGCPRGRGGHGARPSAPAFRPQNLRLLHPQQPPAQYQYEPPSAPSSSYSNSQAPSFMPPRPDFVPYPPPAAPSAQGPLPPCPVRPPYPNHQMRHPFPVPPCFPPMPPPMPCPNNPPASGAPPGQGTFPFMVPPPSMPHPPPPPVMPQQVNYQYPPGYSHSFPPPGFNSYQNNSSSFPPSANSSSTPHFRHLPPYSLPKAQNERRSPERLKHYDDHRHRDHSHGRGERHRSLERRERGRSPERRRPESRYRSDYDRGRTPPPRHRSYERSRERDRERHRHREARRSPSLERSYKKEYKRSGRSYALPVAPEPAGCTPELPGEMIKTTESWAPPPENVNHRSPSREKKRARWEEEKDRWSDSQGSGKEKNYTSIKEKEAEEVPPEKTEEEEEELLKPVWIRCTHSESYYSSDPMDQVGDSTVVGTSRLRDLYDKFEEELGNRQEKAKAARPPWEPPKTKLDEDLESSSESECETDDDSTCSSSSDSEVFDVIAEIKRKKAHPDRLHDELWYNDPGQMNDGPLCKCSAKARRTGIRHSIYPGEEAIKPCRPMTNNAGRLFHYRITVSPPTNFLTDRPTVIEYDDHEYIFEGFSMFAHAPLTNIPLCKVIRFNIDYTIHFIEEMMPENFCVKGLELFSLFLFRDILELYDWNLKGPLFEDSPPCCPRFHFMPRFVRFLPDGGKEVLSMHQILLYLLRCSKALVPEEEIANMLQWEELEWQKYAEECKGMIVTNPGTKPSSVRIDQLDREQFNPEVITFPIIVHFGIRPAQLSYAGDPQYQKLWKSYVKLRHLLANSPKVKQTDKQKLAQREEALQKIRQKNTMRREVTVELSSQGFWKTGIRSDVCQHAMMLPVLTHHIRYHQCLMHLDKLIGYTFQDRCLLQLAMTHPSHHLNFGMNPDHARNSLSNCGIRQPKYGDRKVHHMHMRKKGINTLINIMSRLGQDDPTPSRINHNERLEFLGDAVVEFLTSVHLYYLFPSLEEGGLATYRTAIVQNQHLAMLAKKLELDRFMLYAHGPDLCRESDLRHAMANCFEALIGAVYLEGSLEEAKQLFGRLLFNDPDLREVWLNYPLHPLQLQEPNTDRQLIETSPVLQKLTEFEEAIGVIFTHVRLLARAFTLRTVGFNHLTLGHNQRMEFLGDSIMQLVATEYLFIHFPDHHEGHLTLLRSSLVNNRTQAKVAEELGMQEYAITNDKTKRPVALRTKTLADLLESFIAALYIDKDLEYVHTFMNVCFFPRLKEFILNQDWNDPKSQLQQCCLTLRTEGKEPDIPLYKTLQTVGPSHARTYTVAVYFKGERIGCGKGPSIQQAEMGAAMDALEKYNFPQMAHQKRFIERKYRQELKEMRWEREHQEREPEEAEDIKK
Assay: co-IP; N2A cells transfected with SAFB-HA or SAFB-ΔRE-HA, 48 hr; IP of endogenous Drosha, anti-HA immunoblot, densitometry relative to Drosha; IgG isotype control IP
Details: partners not purified

B1: SAFB-ΔRE-HA (natural protein, UniProt Q15424 1-915, looked up)
chain: MAETLSGLGDSGAAGAAALSSASSETGTRRLSDLRVIDLRAELRKRNVDSSGNKSVLMERLKKAIEDEGGNPDEIEITSEGNKKTSKRSSKGRKPEEEGVEDNGLEENSGDGQEDVETSLENLQDIDIMDISVLDEAEIDNGSVADCVEDDDADNLQESLSDSRELVEGEMKELPEQLQEHAIEDKETINNLDTSSSDFTILQEIEEPSLEPENEKILDILGETCKSEPVKEESSELEQPFAQDTSSVGPDRKLAEEEDLFDSAHPEEGDLDLASESTAHAQSSKADSLLAVVKREPAEQPGDGERTDCEPVGLEPAVEQSSAASELAEASSEELAEAPTEAPSPEARDSKEDGRKFDFDACNEVPPAPKESSTSEGADQKMSSPEDDSDTKRLSKEEKGRSSCGRNFWVSGLSSTTRATDLKNLFSKYGKVVGAKVVTNARSPGARCYGFVTMSTAEEATKCINHLHKTELHGKMISVEKAKNEPVGKKTSDKRDSDGKKEKSSNSDRSTNLKRDDKCDRKDDAKKGDDGSGEKSKDQDDQKPGPSERSRAVRRPYDLDRRDDAYWPEAKRAALDERYHSDFNRQDRFHDFDHRDRGRYPDHSVDRREGSRSMMGEREGQHYPERHGGPERHGRDSRDGWGGYGSDKRMSEGRGLPPPPRRDWGDHGRREDDRSWQGTADGGMMDRDHKRWQGGERSMSGHSGPGHMMNRGGMSGRGSFAPGGASRGHPIPHGGMQGGFGGQSRGSRPSDARFTRRY
notes: SAFB lacking the RE-rich region (amino acids 552-708), made from CAG::Safb-HA-IRES-Cfp by Q5 site-directed mutagenesis; Parent is m26; Also expressed in DG NSCs for the reporter assay; also called CAG::Safb-ΔRE-HA-IRES-Cfp; source: N2A, transfected (TransFectin), in lysate
fold reduction in binding against SAFB WT: 5.7 fold

Reference: publication PMC11149935, “SAFB regulates hippocampal stem cell fate by targeting Drosha to destabilize Nfib mRNA” (eLife, 2024)
